From the supplement of paper PMC9732359
± gives the uncertainty stated by the source.

Experiment: protein stability index of a GFP-peptide fusion (yeast GPS) (PSI 1-4); higher = more stable; sorted into four equal gates, so the index is relative within each strain
Method in brief: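 Sequencing reads from sorted gates were used to score each peptide. The library consisted of tiled 17-residue yeast protein peptides fused downstream of GFP on a Cherry-expressing plasmid, pooled and carried in yeast. Mid-log cultures in leucine-free medium were split into four equal gates by GFP/Cherry ratio, and each gate's plasmids were PCR-amplified and Illumina-sequenced. The protein stability index adds up, over all gates, the read frequency multiplied by the gate number.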

Row | Sequence | protein stability index (doa10∆) | protein stability index (pdr5∆) | protein stability index (ubr1∆) | protein stability index (san1∆)
1 | ASYAKIEIKISDPLTVF [SNU114] | 1.21 ± 0.15 | 2.66 ± 0.25 | 1.45 ± 0.089 | –
2 | AHTGATPIAGRFTPGSF [RPS0A] | 3.15 ± 0.17 | 2.91 ± 0.08 | 2.81 ± 0.12 | 2.52 ± 0.17
3 | ELTQVPSARQKYMVKGG [UBP6] | 2.6 ± 0.13 | 2.83 ± 0.095 | 2.96 ± 0.11 | 2.95 ± 0.1
4 | HVLNKVTLASILTTAVG [RPN1] | 1.72 ± 0.14 | 1.41 ± 0.079 | 1.31 ± 0.19 | 1.46 ± 0.21
5 | LADILKANISLETLEHN [RPO21] | 2.96 ± 0.093 | 2.91 ± 0.1 | 2.61 ± 0.11 | 3.11 ± 0.11
6 | FDDSSRIVNHKTKLWGF [LIN1] | 3.09 ± 0.071 | 2.98 ± 0.08 | 2.94 ± 0.055 | 3.1 ± 0.069
7 | QGSVTVGLRSNTHAVLV [PRE5] | 1.24 ± 0.033 | 1.43 ± 0.039 | 1.29 ± 0.037 | 1.75 ± 0.07
8 | EFISIYSNSHQMAVHIA [RET1] | 3.25 ± 0.11 | 3.45 ± 0.19 | 3.11 ± 0.087 | 3.04 ± 0.11
9 | RLKEINGWEKYLHNVEL [ISW2] | 2.97 ± 0.12 | – | 2.94 ± 0.057 | –
10 | NKLGALKTNFETEWNLQ [RPB11] | 2.68 ± 0.064 | 2.9 ± 0.077 | 2.95 ± 0.091 | 3.22 ± 0.12
11 | LDDNSTSLEKQINSIKK [YJL041W/NSP1] | 2.74 ± 0.078 | 3.01 ± 0.058 | 2.95 ± 0.045 | 2.98 ± 0.038
12 | LKIIHDTFRWVGKKSAP [RPO31] | 2.51 ± 0.15 | 2.43 ± 0.21 | 3.14 ± 0.11 | 2.35 ± 0.2
13 | TSSKSSSLSAIIVFGYP [YDL088C/ASM4] | 2.31 ± 0.055 | 2.06 ± 0.048 | 2.58 ± 0.05 | 2.71 ± 0.072
14 | LLDEEAEQSFDQQSPWL [RPO21] | 3.27 ± 0.073 | 3.25 ± 0.065 | 3.08 ± 0.048 | 3.24 ± 0.045
15 | VDKNFDKLELYVLRNVL [MTW1] | 3.01 ± 0.096 | 2.43 ± 0.078 | 3.05 ± 0.071 | 2.81 ± 0.12
16 | GSHLFSIHAHGSTDVGY [PUP1] | 2.58 ± 0.078 | 3.01 ± 0.15 | 2.02 ± 0.081 | 2.92 ± 0.077
17 | YDKKKRVVVPQALRVLR [RPL16B] | 1.82 ± 0.043 | 2.09 ± 0.059 | 1.82 ± 0.059 | 2.17 ± 0.084
18 | VTSSFFYRGNYTDFENT [FAS1] | 2.05 ± 0.058 | 2.4 ± 0.049 | 2.57 ± 0.056 | 2.43 ± 0.079
19 | VEEAHDFNMKLAINAKT [RPB2] | 3.09 ± 0.072 | 3.03 ± 0.085 | 3.08 ± 0.05 | 3.08 ± 0.064
20 | PRQTKKAKAQAQAQAQA [PGD1] | 3.2 ± 0.077 | 3.46 ± 0.056 | 3.06 ± 0.059 | 3.22 ± 0.036
21 | FTDENTIVLSLNVKCTR [RPC40] | 3.44 ± 0.14 | 3.61 ± 0.091 | 3.46 ± 0.091 | 2.96 ± 0.17
22 | QAQLRIDDKTQNDELTM [DIS3] | 2.42 ± 0.085 | 2.6 ± 0.07 | 2.62 ± 0.088 | 2.5 ± 0.073
23 | KAPKIQRLVTPQRLQRK [RPS6A] | 2.77 ± 0.06 | 2.95 ± 0.049 | 2.94 ± 0.039 | 2.91 ± 0.042
24 | KLDASKKQQAALTNELN [YIL149C/MLP2] | 2.79 ± 0.069 | 2.99 ± 0.075 | 2.17 ± 0.062 | 2.68 ± 0.08
25 | PIGRDGKLAKPRQLHNT [RPB2] | 2.89 ± 0.077 | 2.88 ± 0.068 | 2.84 ± 0.081 | 2.67 ± 0.059
26 | KIMVAEWYLSHLCSGIL [SRB8] | 1.35 ± 0.056 | 1.39 ± 0.057 | 1.47 ± 0.049 | 1.24 ± 0.077
27 | LAQLTSKLIPEVINKEI [RPS1A] | 2.82 ± 0.1 | 3.28 ± 0.1 | 2.71 ± 0.07 | 2.92 ± 0.073

Row | Sequence | protein stability index (doa10∆) | protein stability index (pdr5∆) | protein stability index (ubr1∆) | protein stability index (san1∆)
28 | EDGLGPLMAKSVKKAGA [ARP7] | – | 3.48 ± 0.27 | 3.27 ± 0.14 | –
29 | NPLADAEEALEPSYIFE [PRE4] | 3.09 ± 0.072 | 2.83 ± 0.077 | 3.12 ± 0.06 | 3.08 ± 0.055
30 | KIDLLSGQFYFRNPTPL [RGR1] | 2.67 ± 0.22 | 3.03 ± 0.15 | 2.82 ± 0.074 | 3.12 ± 0.076
31 | SKISQMAQNKTHIPQTN [YLR018C/POM34] | 1.83 ± 0.24 | 2.21 ± 0.12 | 1.95 ± 0.07 | 2.07 ± 0.1
32 | EITAKEVYDFTHAVGNN [FAS1] | 3 ± 0.065 | 3.15 ± 0.051 | 3.08 ± 0.039 | 2.92 ± 0.046
33 | KLRGDLREAPADYWTHA [SNF6] | – | 3 ± 0.27 | 2.99 ± 0.12 | –
34 | QESFINTMSAWVNMLLI [FAS2] | 2.2 ± 0.077 | 2.12 ± 0.085 | 2.37 ± 0.066 | 2.08 ± 0.1
35 | ERSYPSEFANQNQGGAQ [ROX3] | 2.98 ± 0.083 | 3.07 ± 0.092 | 3.17 ± 0.061 | 2.96 ± 0.066
36 | EQLSKQRDLYKRKEELV [SMC2] | 2.34 ± 0.15 | 3.1 ± 0.19 | 2.73 ± 0.084 | 2.67 ± 0.086
37 | TIPLGGSVHKLPYAIAG [PRE3] | 2.97 ± 0.066 | 2.91 ± 0.085 | 3.08 ± 0.045 | 2.84 ± 0.089
38 | LLAREVLRLRGALVDRT [RPS0A] | 2.17 ± 0.21 | 2.15 ± 0.094 | 2.03 ± 0.15 | 1.78 ± 0.15
39 | RKNRYVILQSDLEEAYA [RPT3] | 2.41 ± 0.22 | 2.23 ± 0.15 | 2.11 ± 0.11 | 2.1 ± 0.17
40 | SYDRTLLIADSRRPEPK [RPS16A] | 2.25 ± 0.043 | 2.48 ± 0.068 | 2.29 ± 0.058 | 2.03 ± 0.075
41 | VELIESKINELSYYVEE [SMC4] | 3.29 ± 0.12 | 3.42 ± 0.082 | 3.4 ± 0.083 | 3.28 ± 0.1
42 | SLTLSFIRHVAKLNYKN [ECM29] | 2.7 ± 0.092 | 2.87 ± 0.088 | 2.92 ± 0.048 | 2.91 ± 0.054
43 | CTQMTDEGLLNMVSLRG [GRR1] | 2.78 ± 0.1 | 2.66 ± 0.083 | 2.02 ± 0.054 | 2.22 ± 0.088
44 | GITYRREDMPFTAEGIV [RPB2] | 2.52 ± 0.096 | 1.86 ± 0.099 | 2.07 ± 0.12 | 2.39 ± 0.13
45 | TRQFEGRSNEIVKTTTK [PRP8] | 3.14 ± 0.058 | 3.12 ± 0.07 | 3 ± 0.044 | 2.89 ± 0.055
46 | THSKLFADKKRDCIDIS [PRP8] | 3.45 ± 0.095 | 3.2 ± 0.077 | 3.38 ± 0.074 | 3.18 ± 0.061
47 | FAAAPNDTSSGTNAMLP [SNF5] | 3.13 ± 0.078 | 3.26 ± 0.13 | 2.89 ± 0.1 | 3.06 ± 0.096
48 | VARFLHFNGIRRLDALV [ITC1] | 3.44 ± 0.16 | 3.45 ± 0.11 | 3.35 ± 0.08 | 3.41 ± 0.058
49 | AARYDYAVAEQCPVKSA [QCR2] | – | – | 1.88 ± 0.065 | –
50 | SEAFPSLQSCSVAVHFQ [SMC4] | 1.77 ± 0.1 | 2.09 ± 0.082 | 1.79 ± 0.056 | 2.39 ± 0.095
51 | KRIKPNTEITQKSSKEN [ECM29] | 2.81 ± 0.081 | 2.9 ± 0.074 | 3.14 ± 0.056 | 2.98 ± 0.067
52 | QIYGFEGLNQRNQVQTE [YGR119C/NUP57] | 3.16 ± 0.17 | 2.94 ± 0.22 | 3.39 ± 0.18 | 3.08 ± 0.13
53 | GVFDPASYSKYLIDHIK [RPL22B] | 3.12 ± 0.051 | 3.1 ± 0.069 | 2.9 ± 0.043 | 2.92 ± 0.06
